# Experimental data as given in US20120207770A1 (NANYANG TECHNOLOGICAL UNIVERSITY, published 2012).
# Columns and labels:
# [1] = target: T1, human integrin β5 (enriched membrane protein extract of transfected HEK293T cells) (human, UniProt P18084 24-799, limits assumed); assay: SPR, integrin over immobilized ANGPTL4, global fit to Langmuir 1:1 model
# T1 construct: Membrane extract enriched on a sucrose step gradient before SPR; also called integrins B5; integrin 5
# Method: Purifided fibrinogen-like fragment of ANGPTL4 (cANGPTL4) was immobilized onto ProteOn GLC chip by amine coupling as recommended by the manufacturer (Bio-Rad). Different concentrations of integrins were introduced into the GLC chip at a flow rate of 25 μl/min for […] with running buffer (50 mM Tris, pH8.0, 100 mMNaC1). […] Global fitting of the data to a Languir 1:1 model was used to determine the association (Kₒₙ) dissociation (Koff) and affinity constant (KD) using scrubber2 (Biologic Software Pty Ltd). […] The affinity constants of the 6 mAbs for ANGPTL4 were determined using the one shot Kinetics protocol as described by manufacturer (Bio-Rad).
# Purified fibrinogen-like fragment of ANGPTL4 (cANGPTL4) was immobilized onto ProteOn GLC chip by amine coupling, as recommended by the manufacturer (Bio-Rad). Different concentrations of integrins were introduced into the GLC chip at a flow rate of 25 μl/min for […] with running buffer (50 mM Tris, pH 8.0, 100 mM NaCl). […] Global fitting of the data to a Langmuir 1:1 model was used to determine the association (kₒₙ), dissociation (koff) and affinity constant (KD) using Scrubber2 (BioLogic Software Pte Ltd). […] The affinity constants of the 6 mAbs for ANGPTL4 were determined using the One-Shot Kinetics protocol as described by manufacturer (Bio-Rad).
# [2] = target: T2, human integrin β1 (enriched membrane protein extract of transfected HEK293T cells) (human, UniProt P05556 21-798, limits assumed); assay: SPR, integrin over immobilized ANGPTL4 on a GLC chip, global fit to Langmuir 1:1 model
# T2 construct: Membrane extract enriched on a sucrose step gradient before SPR; also called integrins B1
# Method: Immunoprecipitates were probed with anti-Src for normalization. Activated Src, Na⁺/H⁻ exchanger 1 and catalase were assessed using cognate antibodies. Representative pictures from three experiments. (h) Intracellular ROS of A-5RT3CTRL and A-5RT3ANGPTL4 evaluated by 5-(and 6-)-chloromethyl-2′,7′-dichlorodihydro-fluorescein diacetate acetyl ester. Data are normalized to total protein content. (i) Activities of caspases in A-5RT3ANGPTL4 after 2 h suspension. Values (mean±S.D.) represent a fold change above A-5RT3CTRL (n=3). *:p<0.05, **:p<0.01.
# Purifided fibrinogen-like fragment of ANGPTL4 (cANGPTL4) was immobilized onto ProteOn GLC chip by amine coupling as recommended by the manufacturer (Bio-Rad). Different concentrations of integrins were introduced into the GLC chip at a flow rate of 25 μl/min for […] with running buffer (50 mM Tris, pH8.0, 100 mMNaC1). […] The affinity constants of the 6 mAbs for ANGPTL4 were determined using the one shot Kinetics protocol as described by manufacturer (Bio-Rad).
# Purified fibrinogen-like fragment of ANGPTL4 (cANGPTL4) was immobilized onto ProteOn GLC chip by amine coupling, as recommended by the manufacturer (Bio-Rad). […] The affinity constants of the 6 mAbs for ANGPTL4 were determined using the One-Shot Kinetics protocol as described by manufacturer (Bio-Rad).
# T1 sequence (P18084 24-799 limits assumed): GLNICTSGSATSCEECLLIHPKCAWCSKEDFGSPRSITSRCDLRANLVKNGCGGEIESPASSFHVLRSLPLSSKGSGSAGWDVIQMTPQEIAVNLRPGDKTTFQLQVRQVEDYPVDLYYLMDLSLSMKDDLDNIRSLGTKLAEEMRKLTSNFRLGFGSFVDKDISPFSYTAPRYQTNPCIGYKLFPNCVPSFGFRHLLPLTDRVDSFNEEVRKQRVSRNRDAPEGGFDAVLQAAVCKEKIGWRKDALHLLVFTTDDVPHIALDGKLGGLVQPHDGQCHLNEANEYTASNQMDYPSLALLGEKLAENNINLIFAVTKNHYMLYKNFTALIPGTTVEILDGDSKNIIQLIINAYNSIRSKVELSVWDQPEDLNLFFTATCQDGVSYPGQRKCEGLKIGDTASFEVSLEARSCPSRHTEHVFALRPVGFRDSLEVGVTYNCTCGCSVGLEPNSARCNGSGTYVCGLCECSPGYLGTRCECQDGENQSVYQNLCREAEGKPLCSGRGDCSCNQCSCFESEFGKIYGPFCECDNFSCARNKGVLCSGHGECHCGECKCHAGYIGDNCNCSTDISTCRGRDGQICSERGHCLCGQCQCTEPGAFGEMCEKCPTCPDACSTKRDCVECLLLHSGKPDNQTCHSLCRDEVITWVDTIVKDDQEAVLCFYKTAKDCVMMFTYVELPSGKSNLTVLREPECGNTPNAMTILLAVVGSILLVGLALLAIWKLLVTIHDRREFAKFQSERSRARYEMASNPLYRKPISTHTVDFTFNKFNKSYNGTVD
# T2 sequence (P05556 21-798 limits assumed): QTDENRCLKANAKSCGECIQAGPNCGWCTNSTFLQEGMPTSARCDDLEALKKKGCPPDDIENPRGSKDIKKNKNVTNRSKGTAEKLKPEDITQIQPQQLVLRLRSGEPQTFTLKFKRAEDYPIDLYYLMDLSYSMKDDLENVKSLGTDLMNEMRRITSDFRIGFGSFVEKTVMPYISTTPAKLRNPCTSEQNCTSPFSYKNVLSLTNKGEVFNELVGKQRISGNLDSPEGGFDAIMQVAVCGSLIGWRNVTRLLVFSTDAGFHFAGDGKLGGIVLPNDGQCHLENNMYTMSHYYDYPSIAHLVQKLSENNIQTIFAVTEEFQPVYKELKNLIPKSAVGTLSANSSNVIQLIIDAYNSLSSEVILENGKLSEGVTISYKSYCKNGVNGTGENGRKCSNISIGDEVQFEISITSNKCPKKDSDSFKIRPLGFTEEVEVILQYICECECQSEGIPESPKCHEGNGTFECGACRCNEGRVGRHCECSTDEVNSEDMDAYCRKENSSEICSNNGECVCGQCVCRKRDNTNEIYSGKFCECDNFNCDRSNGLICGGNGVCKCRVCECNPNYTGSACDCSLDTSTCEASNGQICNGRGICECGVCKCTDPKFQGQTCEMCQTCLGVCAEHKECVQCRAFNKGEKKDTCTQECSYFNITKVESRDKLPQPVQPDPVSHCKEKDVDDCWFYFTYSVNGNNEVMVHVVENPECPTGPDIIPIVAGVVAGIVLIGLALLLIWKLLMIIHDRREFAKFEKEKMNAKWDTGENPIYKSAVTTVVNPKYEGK
binder,measurement,setting,value
"recombinant C-terminal fibrinogen-like fragment of human ANGPTL4 (cANGPTL4, a.a. 186-406) (ligand, UniProt Q9BY76 186-406, looked up, range 186-406; also called immobilized-ANGPTL4; fibrinogen-like fragment of ANGPTL4; not shown: N-terminal histidine tag) RDCQELFQVGERQSGLFEIQPQGSPPFLVNCKMTSDGGWTVIQRRHDGSVDFNRPWEAYKAGFGDPHGEFWLGLEKVHSITGDRNSRLAVQLRDWDGNAELLQFSVHLGGEDTAYSLQLTAPVAGQLGATTVPPSGLSVPFSTWDQDHDLRRDKNCAKSLSGGWWFGTCSHSNLNGQYFRSIPQQRQKLKKGIFWKTWRGRYYPLQATTMLIQPMAAEAAS",Kd,[1],~0.1 µM
same,Kd,[2],~0.1 µM
